The subject of one series is 70Z/3 cells. The series can be described thus: Apoptosis in 70Z/3 cells (caspase-3 activity). The class given is cell-based, mouse.
In series [1] the test system is glucocorticoid response genes Fos, Jun and Bim. The series can be described thus: Expression of glucocorticoid response genes Fos, Jun and Bim in 70Z/3 cells (RT-qPCR, Western blot). The class given is cell-based, mouse. The protocol: (§1) RNA collected from samples was reverse transcribed using qScript reagent (Quanta Biosciences). Real Time quantitative PCR was performed with the StepOnePlus Real-Time PCR System (Applied Biosystems) using PerfeCTa SYBR Green FastMix reagent (Quanta Biosciences).
(§2) RACE was performed and two products were identified at this locus (FIG. 16E). We generated miRNA-formatted siRNAs (Rao, et al., 2010) against the mapped murine transcript and confirmed decreased expression in the murine pre-B cell line 70Z/3 (FIG. 14B). […] Similar to what we observed in human cell lines, Balir-2 knockdown led to an upregulation of Jun and Fos in all three of the cell lines with upregulation of Bim in two out of three cell lines (FIG. 14D-F). We further confirmed the upregulation of these proteins by western blot analysis (FIG. 14G). […] We also examined the effects of BALIR-2 expression in a second human B-ALL cell line, Reh (FIG. 18K-R), utilizing a novel method to target the transcript. Based on the method of Ulitsky et al, we generated a siRNA-like sequence within our miRNA formatted vector, targeting the splice junction of the BALIR-2 transcript (Ulitsky, et al., 2011).
In general terms: Real-time PCR tracks product formation cycle by cycle.

In series [2] the test system is RS411 cell line. The series can be described thus: Apoptosis, caspase-3 activity, RS411. The note with it: for apoptosis measured by caspase-3 activity: RS411 stably transduced. Type of series: cell-based, human. The protocol: To measure proliferation, cells were cultured for 3-5 days before plating. Reagents were added according to the manufacturer's instructions (Promega CellTiter 96 AQueous Non-Radioactive Cell Proliferation Assay kit) and cells were incubated at 37°, 5% CO2 for 4 hours before absorbance was measured at 490 nm. […] An untreated group and DMSO-treated group were included as controls. Cells were harvested after 24 hours and lysed with buffer supplied by Biovision. Protein concentrations were normalized after measurement by Bradford assay. Reagents were added according to the manufacturer's instructions (Biovision Caspase-3 Colorimetric Assay kit) and absorbance was measured at 405 nm. To observe the effects of prednisolone on lincRNA expression, untransduced cell lines were plated and treated with either 250 μg/mL prednisolone in DMSO or DMSO alone as a control. Cells were incubated at 37° C. and 5% CO2 for 24 hrs. Cells were collected and RNA was extracted using Trizol reagent (Invitrogen).

The subject of series [3] is Balir-2. The series is described as follows: Balir-2 expression in 70Z/3 mouse cell line (RT-qPCR, normalized to L32). Type of series: cell-based. As to conditions: 70Z/3 cells, 6 hrs. The protocol: as §1, §2
Series [4] relates to glucocorticoid receptor signaling pathway. The series can be described thus: Expression of glucocorticoid response genes in RS4;11 cells (microarray, RT-qPCR). Type of series: cell-based, human. The protocol: as §1
Several of these clusters consist of genes involved in the glucocorticoid receptor signaling pathway, confirmed by functional annotation results (2-4 fold increases in FOS, HSPA6, SGK1, IL8, JUN, SERPINE1, CDKN1A and ICAM1 in siRNA group, both with and without prednisone treatment; FIGS. 13B and 13C). We confirmed knockdown of BALIR-2 and upregulation of FOS, JUN, SGK1 and SERPINE1 (FIG. 13D-F and FIG. 18E-F) by RT-qPCR. […] We also observed upregulation of the pro-apoptotic protein BIM in both knockdown and prednisolone-treated cells, which is a downstream target of JUN and an important mediator of glucocorticoid-induced apoptosis of lymphocytic cells (Heidari, et al, 2012) (FIGS. 13G and 13K).

The subject of series [5] is BALIR-2. The series is described as follows: Effect of prednisolone on BALIR-2 expression in human B-ALL cell lines (RT-qPCR). Type of series: cell-based. The protocol:
(§3) To measure proliferation, cells were cultured for 3-5 days before plating. Reagents were added according to the manufacturer's instructions (Promega CellTiter 96 AQueous Non-Radioactive Cell Proliferation Assay kit) and cells were incubated at 37°, 5% CO2 for 4 hours before absorbance was measured at 490 nm. To measure apoptosis, cells were plated and treated with 100 ng/mL doxorubicin or 250 μg/mL prednisolone in DMSO and incubated at 37° C. and 5% CO2. An untreated group and DMSO-treated group were included as controls. Cells were harvested after 24 hours and lysed with buffer supplied by Biovision. Protein concentrations were normalized after measurement by Bradford assay. Reagents were added according to the manufacturer's instructions (Biovision Caspase-3 Colorimetric Assay kit) and absorbance was measured at 405 nm. To observe the effects of prednisolone on lincRNA expression, untransduced cell lines were plated and treated with either 250 μg/mL prednisolone in DMSO or DMSO alone as a control. Cells were incubated at 37° C. and 5% CO2 for 24 hrs. Cells were collected and RNA was extracted using Trizol reagent (Invitrogen).
as §1

In series [6] the test system is BALIR-2. The series is described as follows: siRNA-mediated knockdown of BALIR-2 in human B-ALL cell lines (RT-qPCR, normalized to Actin). Type of series: cell-based. The protocol: We designed two complementary “linker” strands containing restriction sites for BamHI (5′ intact), XhoI, XbaI, NheI, ApaI and BamHI (3′ mutated) as follows: 5′-[…]-3′ (forward) (SEQ ID NO. 11), 5′-[…]-3′ (reverse) (SEQ ID NO. 12). The oligonucleotides were ordered through Invitrogen and modified with 5′-phosphate groups. The complementary strands were annealed by heating to 100° C. and slowly cooling in a water bath. The pHAGE2-CMV-ZsGreen-W vector (previously described in (O'Connell, 2010)) was digested with BamHI (Fermentas) and the linker was ligated in using T4 DNA ligase (Fermentas). Colonies were sequenced (Laragen) to determine the correct orientation and verify the sequence of the insert and mutation of the 3′ BamHI site. miRNA-formatted siRNAs were cloned into BamHI and ApaI or XhoI in the P2CZL vector, using the strategy that we have previously described to generate knockdown vectors against protein coding genes (O'Connell, 2009; Rao, 2010).
All lentiviruses were produced by transfecting 293T adherent cells with knock-down vectors as listed in Table 1, using BioT transfection agent (Bioland Scientific). 2.5×10^5 293T cells were co-transfected in trans using an advanced generation lentiviral system in 6 well plates for 48 hours as described previously (O'Connell, 2010). At 48 hours, the viral supernatant was collected, filtered and used for spin infection of B-ALL cell lines. 5.0×10^5 cells were spin-infected at 30° C. for 90 minutes in the presence polybrene (4 μg/mL). Transduced cells were sorted for high ZsGreen expression as described above.
as §1

Series [7] relates to RS411 cell line. The series is described as follows: Cell proliferation, MTS assay, RS411. The class given is cell-based, human. The note with it: RS411 stably transduced with siRNA. The protocol: as §3
(Tetrazolium dyes change colour on reduction, which living cells bring about.)

The mark [8] stands for this setting: RS411 cell line, stably transduced.

Consider `C[C@]12C=CC(=O)C=C1CC[C@@H]1[C@@H]2[C@@H](O)C[C@@]2(C)[C@H]1CC[C@]2(O)C(=O)CO` [prednisolone], for which the entries for the “apoptosis after prednisolone treatment” value in the series on 70Z/3 cells and in the series with RS411 cell line [2] (RS4;11 cells) were “increased apoptosis” and “induction of apoptosis”, respectively. For the same molecule, in series [1], the “expression of Jun, Fos and Bim after prednisolone treatment” value is reported as “upregulation”. Also, the “Balir-2 expression upon prednisolone treatment” value with Balir-2 [3] is given as “decreased”. The “expression of FOS and JUN after prednisolone treatment” value in series [4] (RS4;11 cells) is recorded as “increased expression”. For the same molecule, the “expression of pro-apoptotic protein BIM” value in series [4] (RS4;11 cells) is “upregulation”. Moreover, the “BALIR-2 expression after prednisolone treatment” value in the series with BALIR-2 [5] (RS4;11 cells) is “repressed”. Moreover, in the series on BALIR-2 [5] (RS411 and NALM6 cell lines treated with prednisolone), the “decrease in expression of BALIR-2 following treatment” value is recorded as 30-50%.

B1: human-miR155-formatted siRNA2: human-miR155-formatted siRNA2 against BALIR-2; SEQ ID NO:34/44, printed as siRNA1-human155f (nucleic acid)
chain 1: GTAGGCTGTATGCTGTTTACTGAAATCTCCTAGGTGGTTTTGGCCACTGACTGACCACCTAGGATTTCAGTAAATGTATGATGCCTG
chain 2: TTTACTGAAATCTCCTAGGTG
modifications: expressed or natural sequence
Regarding B1, in the series with BALIR-2 [6] (setting [8]), the “knockdown of BALIR-2” value is on record as “do not knock down”.

B2: siRNA3: miR-155 formatted siRNA oligo against BALIR-2; SEQ ID NO:31/41 (nucleic acid)
chain 1: GTAGGCTGTATGCTGTAAGGTAAGTGGCAGGCATTTGTTTTGGCCACTGACTGACAAATGCCTCACTTACCTTATGTATGATGCCTG
chain 2: TAAGGTAAGTGGCAGGCATTT
modifications: expressed or natural sequence
As for B2, the “knockdown of BALIR-2” value in the series on BALIR-2 [6] (setting [8]) is “do not knock down”.

B3: siRNA1: miR-155 formatted siRNA oligo against BALIR-2; SEQ ID NO:29, targeting sequence SEQ ID NO:39 (nucleic acid)
chain: GAAGGCTGTATGCTGAGATTAGGTTGGCATGATTCTGTTTTGGCCACTGACTGACAGAATCATCAACCTAATCTCAGGACACAAGGCCTG
modifications: expressed or natural sequence
With B3, the “knockdown of BALIR-2” value in the series with BALIR-2 [6] (NALM6 cell line) was “do not knock down”. In the series on RS411 cell line [7], the “cell proliferation (MTS assay)” value was “reduced”.

B4: siRNA4: miR-155 formatted siRNA oligo against BALIR-2; SEQ ID NO:32/42 (nucleic acid)
chain 1: GTAGGCTGTATGCTGTTTCACGGTGTGGCAGCTTTCGTTTTGCCTCCAACTGAGAAAGCTGACACCGTGAAATGTATGATGCCTG
chain 2: TTTCACGGTGTGGCAGCTTTC
modifications: expressed or natural sequence
Consider B4, for which the “knockdown of BALIR-2” value in the series on BALIR-2 [6] (setting [8]) is recorded as “do not knock down”.

B5: siRNA2: miR-155 formatted siRNA oligo against BALIR-2; SEQ ID NO:30, targeting sequence SEQ ID NO:40 (nucleic acid)
chain: GAAGGCTGTATGCTGTTTACTGAAATCTCCTAGGTGGTTTTGGCCACTGACTGACCACCTAGGATTTCAGTAAACAGGACACAAGGCCTG
modifications: expressed or natural sequence
With B5, the “knockdown of BALIR-2” value in the series on BALIR-2 [6] (NALM6 cell line) is reported as “do not knock down”; in the series with BALIR-2 [6] (setting [8]), “greatest degree of knockdown”. In addition, the “apoptosis measured by caspase-3 activity” value with RS411 cell line [2] (DMSO) and with RS411 cell line [2] (no treatment) was “Increased apoptosis” in each case. Also, the “increases in FOS, HSPA6, SGK1, IL8, JUN, SERPINE1, CDKN1A and ICAM1 in siRNA group” value in series [4] (RS4;11, microarray, both with and without prednisone treatment) is given as 2-4 fold. The “expression of FOS, JUN, SGK1 and SERPINE1 by RT-qPCR after knockdown” value in series [4] (RS4;11 cells) is “upregulation”. The “expression of pro-apoptotic protein BIM” value in series [4] (RS4;11 cells) was “upregulation”.

B6: human-miR155-formatted siRNA1: human-miR155-formatted siRNA1 against BALIR-2; SEQ ID NO:33/43 (nucleic acid)
chain 1: GTAGGCTGTATGCTGAGATTAGGTTGGCATGATTCTGTTTTGGCCACTGACTGACAGAATCATCAACCTAATCTTGTATGATGCCTG
chain 2: AGATTAGGTTGGCATGATTCT
modifications: expressed or natural sequence
On to B6, for which, in the series on BALIR-2 [6] (setting [8]), the “knockdown of BALIR-2” value is “do not knock down”.

For the origin of these results see patent US9909188B2, “Methods and compositions involving lincRNA and leukemia” (THE REGENTS OF THE UNIVERSITY OF CALIFORNIA, priority 2013, dated 2018).
